# Key:
# [1] = biological target: dynamic microtubules grown in buffer from purified (tyrosinated) tubulin (pig) (UniProt P02550); experiment: single-molecule TIRF microscopy on dynamic microtubules
# [2] = biological target: dynamic microtubules grown in buffer from detyrosinated tubulin (tubulinΔY) (pig) (UniProt P02550); experiment: TIRF microscopy on dynamic microtubules
mean single molecule dwell time at growing microtubule ends [1] [s],percent reduction of end binding against microtubules of tyrosinated tubulin [2] [%],mean dwell time at growing microtubule ends [1] [s],Substance
0.05,,,EB1-GFP (full-length X. laevis EB1 fused to GFP) (natural protein)
,87,0.25,H2-GFP (GFP-tagged H2 fragment of CLIP-170) (domain or fragment)

# — paper PMC2606963
